Experimental data: IntAct's records for PubMed 16782870

B1: Minichromosome maintenance protein 10 (Saccharomyces cerevisiae), P32354 (parent)
chain: MNDPREILAVDPYNNITSDEEDEQAIARELEFMERKRQALVERLKRKQEFKKPQDPNFEAIEVPQSPTKNRVKVGSHNATQQGTKFEGSNINEVRLSQLQQQPKPPASTTTYFMEKFQNAKKNEDKQIAKFESMMNARVHTFSTDEKKYVPIITNELESFSNLWVKKRYIPEDDLKRALHEIKILRLGKLFAKIRPPKFQEPEYANWATVGLISHKSDIKFTSSEKPVKFFMFTITDFQHTLDVYIFGKKGVERYYNLRLGDVIAILNPEVLPWRPSGRGNFIKSFNLRISHDFKCILEIGSSRDLGWCPIVNKKTHKKCGSPINISLHKCCDYHREVQFRGTSAKRIELNGGYALGAPTKVDSQPSLYKAKGENGFNIIKGTRKRLSEEEERLKKSSHNFTNSNSAKAFFDEKFQNPDMLANLDNKRRKIIETKKSTALSRELGKIMRRRESSGLEDKSVGERQKMKRTTESALQTGLIQRLGFDPTHGKISQVLKSSVSGSEPKNNLLGKKKTVINDLLHYKKEKVILAPSKNEWFKKRSHREEVWQKHFGSKETKETSDGSASDLEII
B2: Proliferating cell nuclear antigen (Saccharomyces cerevisiae), P15873 (parent)
chain: MLEAKFEEASLFKRIIDGFKDCVQLVNFQCKEDGIIAQAVDDSRVLLVSLEIGVEAFQEYRCDHPVTLGMDLTSLSKILRCGNNTDTLTLIADNTPDSIILLFEDTKKDRIAEYSLKLMDIDADFLKIEELQYDSTLSLPSSEFSKIVRDLSQLSDSINIMITKETIKFVADGDIGSGSVIIKPFVDMEHPETSIKLEMDQPVDLTFGAKYLLDIIKGSSLSDRVGIRLSSEAPALFQFDLKSGFLQFFLAPKFNDEE
partner: B1 chain
B3: Proliferating cell nuclear antigen (Saccharomyces cerevisiae), P15873 (parent)
chain: B2 chain

Variants of: B1
Settings: with pcna_yeast POL30, P15873

| Variant | effect of a mutation on the interaction |
| --- | --- |
| L242A | disrupting interaction |
| L242Y | decreasing interaction |
| Y245A | disrupting interaction |

Variants of: B2
Settings: with mcm10_yeast MCM10, P32354

| Variant | effect of a mutation on the interaction |
| --- | --- |
| Y133A | decreasing interaction |
| A251V | disrupting interaction |

Variants of: B3
Settings: with dpod3_yeast POL32, P47110
Chain of dpod3_yeast POL32, P47110 (P47110 whole entry): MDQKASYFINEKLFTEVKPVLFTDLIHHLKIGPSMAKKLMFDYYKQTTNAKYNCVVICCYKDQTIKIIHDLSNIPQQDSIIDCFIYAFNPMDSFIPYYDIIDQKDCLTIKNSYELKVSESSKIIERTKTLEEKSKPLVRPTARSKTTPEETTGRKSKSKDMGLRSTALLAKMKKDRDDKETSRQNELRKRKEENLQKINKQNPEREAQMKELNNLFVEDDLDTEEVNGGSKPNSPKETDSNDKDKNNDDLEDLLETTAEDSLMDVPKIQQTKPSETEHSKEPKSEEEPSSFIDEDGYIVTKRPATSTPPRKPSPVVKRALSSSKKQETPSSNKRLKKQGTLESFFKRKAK

| Variant | effect of a mutation on the interaction |
| --- | --- |
| Y133A | decreasing interaction |
| Y133L | decreasing interaction |
| A251V | decreasing interaction |
